In general, koff refers to the first-order rate constant of dissociation. The term kon denotes a measure of how fast the partners come together. A higher kon goes with fast association.

One molecule from patent publication US7037662 (dated 2006) can be followed below.

Experiment [1] addresses T1, soluble HEK (sHEK), complete extracellular domain (exodomain) of HEK encoded by exons I-VII (human, UniProt P29320 21-541).
T1 construct: extracellular domain; Untagged soluble exodomain from CHO cells; also called HEK exodomain
T1 sequence (looked up): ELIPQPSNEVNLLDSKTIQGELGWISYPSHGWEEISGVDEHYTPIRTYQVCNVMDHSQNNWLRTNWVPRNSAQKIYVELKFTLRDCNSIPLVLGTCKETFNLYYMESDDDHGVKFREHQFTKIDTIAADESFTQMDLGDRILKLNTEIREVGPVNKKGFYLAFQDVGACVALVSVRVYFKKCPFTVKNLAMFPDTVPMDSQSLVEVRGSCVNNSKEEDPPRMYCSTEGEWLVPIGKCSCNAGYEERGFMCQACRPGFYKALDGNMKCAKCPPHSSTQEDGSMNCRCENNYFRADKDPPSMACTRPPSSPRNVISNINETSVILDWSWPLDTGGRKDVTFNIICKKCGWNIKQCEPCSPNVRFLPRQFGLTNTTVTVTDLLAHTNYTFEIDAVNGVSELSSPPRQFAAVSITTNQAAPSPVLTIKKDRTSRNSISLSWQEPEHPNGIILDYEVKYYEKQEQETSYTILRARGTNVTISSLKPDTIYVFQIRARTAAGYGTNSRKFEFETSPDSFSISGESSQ
Kind of experiment: BIAcore, LERK 7-FLAG over immobilised sHEK, single component model. Here is the method:
(§1) The binding of various HEK constructs and derived peptides was analysed on the BIAcore optical biosensor (Pharmacia Biosensor, Sweden) using purified soluble HEK (corresponding to the entire extracellular domain) or LERK 7-FLAG derivatised CM 5 sensor chips and the interaction kinetics determined. The immobilization of HEK onto the sensor chip surface was performed essentially as described by Lackmann et al, 1996. LERK7-FLAG (47 μg/ml in 20 mM sodium acetate, pH 4.5) was coupled at 5 μl/min onto N-hydroxysuccinimide (NHS, 0.05 M)/N-hydroxysuccinimide-N-ethyl-N'-([…]) carbodiimide(EDC, 0.2 M) activated sensor chips (45 μl, 2 μl/min) to yield an increase in the response level of 2500–3000 response units (RU).
(§2) Figures 5A, 5B: FIG. 5: Binding curves for the interaction of monovalent LERK-FLAG fusion proteins with immobilised sHEK. Homogeneous preparations of CHO cell-derived LERK 3-FLAG (panel A) or LERK 7-FLAG (panel B) at increasing concentrations (8.22, 16.44, 32.88, 65.75, 131.5, 263, 526 nM) of LERK3-FLAG, and (1.25, 2.5, 5, 10, 20, 40, 80 nM) LERK7-FLAG were injected across an sHEK-derivatised sensor surface. BIAcore data for the association and dissociation phases were used to estimate corresponding kinetic rate constants on the basis of a one-to-one interaction model. (panel C). […]
A general note: Surface plasmon resonance follows binding to a sensor surface in real time, without labels.

The target in experiment [2] is T1, soluble HEK (sHEK), complete …. The experiment in a line: BIAcore, monovalent ligand constructs on HEK; reference LERK 3-FLAG.
Experiment [3] deals with T2, HEK I-VII (N-terminally FLAG-tagged HEK exodomain, exons I-VII) (human, UniProt P29320 21-541).
T2 construct: extracellular domain; CHO cell product; in the zebrafish experiments expressed from injected mRNA; also called HEK-FLAG
T2 sequence (looked up): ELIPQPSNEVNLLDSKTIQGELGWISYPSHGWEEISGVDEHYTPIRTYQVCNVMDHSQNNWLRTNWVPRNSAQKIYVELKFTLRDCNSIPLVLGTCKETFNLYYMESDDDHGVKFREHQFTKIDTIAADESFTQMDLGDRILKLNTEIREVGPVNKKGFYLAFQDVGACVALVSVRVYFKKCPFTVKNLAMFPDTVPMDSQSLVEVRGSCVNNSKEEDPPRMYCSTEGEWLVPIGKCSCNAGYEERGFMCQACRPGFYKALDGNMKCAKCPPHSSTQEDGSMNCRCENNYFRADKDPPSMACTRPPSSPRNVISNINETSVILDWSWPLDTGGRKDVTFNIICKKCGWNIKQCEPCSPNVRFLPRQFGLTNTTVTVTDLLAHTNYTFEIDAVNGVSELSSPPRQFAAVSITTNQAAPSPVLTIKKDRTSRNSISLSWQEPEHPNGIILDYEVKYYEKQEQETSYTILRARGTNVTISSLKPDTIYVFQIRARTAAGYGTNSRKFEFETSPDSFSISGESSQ
Kind of experiment: BIAcore, apparent KD from kinetic constants, HEK I-VII over sensor chip-immobilised LERK 7. Here is the method:
as §1
(§3) Figure 2D: FIG. 2D: sHEK proteins at increasing concentrations (15.6–500 nM) were injected onto LERK 7-derivatised sensor chips and the association rate constants, (M) derived from BIAcore raw data using the BIA evaluation software as described in *Materials and Methods*. Figure 2E: FIG. 2E; The kinetic rate constants were then used to estimate apparent dissociation constants according to K_D=kd/ka. The mean and standard deviation from estimates at five different concentrations are shown (dark shading). In addition, equilibrium responses were used to estimate the apparent equilibrium dissociation constants (light shading).

The target of experiment [4] is T1, soluble HEK (sHEK), complete …. The experiment in a line: BIAcore, apparent KD from kinetic constants, sHEK over sensor chip-immobilised LERK 7; sHEK over sensor chip-immobilised LERK 7. The procedure: as §1, §3
For experiment [5] the target is unchanged. The experiment in a line: BIAcore, LERK-FLAG over immobilised HEK; reference LERK 3-FLAG.
Experiment [6] shares this target. Kind of experiment: BIAcore, apparent KD from kinetic rate constants, immobilised sHEK. The procedure:
as §1, §2

B1: LERK 7-FLAG (monovalent LERK7/AL-1 with N-terminal FLAG peptide) (ligand, human, UniProt P52803 21-203, looked up, not shown: small tags and cut ends)
chain: QDPGSKAVADRYAVYWNSSNPRFQRGDYHIDVCINDYLDVFCPHYEDSVPEDKTERYVLYMVNFDGYSACDHTSKGFKRWECNRPHSPNGPLKFSEKFQLFTPFSLGFEFRPGREYFYISSAIPDNGRRSCLKLKVFVRPTNSCMKTIGVHDRVFDVNDKVENSLEPADDTVHESAEPSRGEN
notes: domain: mature protein stopped before the hydrophobic tail; also called soluble LERK7
Take B1: the koff in experiment [1] was 0.0061 s⁻¹. In experiment [1], this molecule displayed a kon of 480000 M⁻¹ s⁻¹. Further, the “fold more avid than LERK3” value in experiment [2] is 50 fold. Moreover, the Kd in experiment [3] was found to be 62 nM; in experiment [4], 72 nM; in experiment [6], 12 nM. Also, in experiment [5], the “fold lower off rate than LERK3-FLAG” value was determined as 40 fold.
